The assay addresses human PAC1 receptor (human), P41586. Kind of assay: cell-based or functional assay.

Where no end group is shown, it is not given here.

human PAC1 receptor (human), P41586, sequence (P41586 21-468): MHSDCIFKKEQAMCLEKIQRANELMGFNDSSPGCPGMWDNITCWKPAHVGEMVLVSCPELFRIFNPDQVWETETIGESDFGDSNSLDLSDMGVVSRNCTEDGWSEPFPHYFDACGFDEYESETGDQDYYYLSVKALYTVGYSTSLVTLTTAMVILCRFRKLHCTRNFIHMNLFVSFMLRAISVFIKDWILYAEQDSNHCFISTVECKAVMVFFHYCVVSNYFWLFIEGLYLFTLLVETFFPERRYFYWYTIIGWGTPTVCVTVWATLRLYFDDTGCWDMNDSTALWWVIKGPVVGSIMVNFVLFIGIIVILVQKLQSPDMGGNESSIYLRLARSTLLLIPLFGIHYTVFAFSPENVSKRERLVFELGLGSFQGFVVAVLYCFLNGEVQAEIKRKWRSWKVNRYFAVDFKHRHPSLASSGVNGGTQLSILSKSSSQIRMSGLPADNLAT

B1: MAXCAP 1 (peptide)
peptide: HSDGIFTDSYSSRYRKQMAVKKYLAAVLPGNSVFKECMKQKKKEFKAGK
modifications: ends and bridges not checked
As for B1, the cAMP (fmol) at 1 nM stood at 3170 fmol, the cAMP (fmol) at 10 nM is 6220 fmol and the cAMP (fmol) at 100 nM is 4710 fmol.

B2: MAXCAP 4 (peptide)
peptide: HSDGIFAPGNSVFKECMKQKKKEFKAGK
modifications: ends and bridges not checked
B2: the cAMP (fmol) at 10 nM came out at 4060 fmol, the cAMP (fmol) at 100 nM turned out to be 6400 fmol, the cAMP (fmol) at 1 µM is 6400 fmol and the cAMP (fmol) at 10 µM was 5780 fmol.

Source of the values: US20220251162A1.
